Source: patent publication US20250313627A1

Experiments:
[1] = target: human ROR1 (Receptor Tyrosine Kinase-Like Orphan Receptor 1) on the cell surface (human) (UniProt Q01973); experiment: flow cytometry, B16-F10 cells expressing human ROR1 (high density)
[2] = target: human ROR1 (Receptor Tyrosine Kinase-Like Orphan Receptor 1) on the cell surface (human) (UniProt Q01973); experiment: as above; remark: listed apart in the source
[3] = target: human ROR1 (Receptor Tyrosine Kinase-Like Orphan Receptor 1) on the cell surface (human) (UniProt Q01973); experiment: as above; remark: listed apart in the source
[4] = target: human ROR1 (Receptor Tyrosine Kinase-Like Orphan Receptor 1) on the cell surface (human) (UniProt Q01973); experiment: as above; remark: listed apart in the source
[5] = target: human ROR1 (Receptor Tyrosine Kinase-Like Orphan Receptor 1) on the cell surface (human) (UniProt Q01973); experiment: as above; remark: listed apart in the source
[6] = target: human ROR1 (Receptor Tyrosine Kinase-Like Orphan Receptor 1) on the cell surface (human) (UniProt Q01973); experiment: as above; remark: listed apart in the source
[7] = target: human ROR1 (Receptor Tyrosine Kinase-Like Orphan Receptor 1) on the cell surface (human) (UniProt Q01973); experiment: flow cytometry, LS174T cells expressing human ROR1 (low density)
[8] = target: human ROR1 (Receptor Tyrosine Kinase-Like Orphan Receptor 1) on the cell surface (human) (UniProt Q01973); experiment: as above; remark: listed apart in the source

human ROR1 (Receptor Tyrosine Kinase-Like Orphan Receptor 1) on the cell surface (human), sequence (Q01973 30-937): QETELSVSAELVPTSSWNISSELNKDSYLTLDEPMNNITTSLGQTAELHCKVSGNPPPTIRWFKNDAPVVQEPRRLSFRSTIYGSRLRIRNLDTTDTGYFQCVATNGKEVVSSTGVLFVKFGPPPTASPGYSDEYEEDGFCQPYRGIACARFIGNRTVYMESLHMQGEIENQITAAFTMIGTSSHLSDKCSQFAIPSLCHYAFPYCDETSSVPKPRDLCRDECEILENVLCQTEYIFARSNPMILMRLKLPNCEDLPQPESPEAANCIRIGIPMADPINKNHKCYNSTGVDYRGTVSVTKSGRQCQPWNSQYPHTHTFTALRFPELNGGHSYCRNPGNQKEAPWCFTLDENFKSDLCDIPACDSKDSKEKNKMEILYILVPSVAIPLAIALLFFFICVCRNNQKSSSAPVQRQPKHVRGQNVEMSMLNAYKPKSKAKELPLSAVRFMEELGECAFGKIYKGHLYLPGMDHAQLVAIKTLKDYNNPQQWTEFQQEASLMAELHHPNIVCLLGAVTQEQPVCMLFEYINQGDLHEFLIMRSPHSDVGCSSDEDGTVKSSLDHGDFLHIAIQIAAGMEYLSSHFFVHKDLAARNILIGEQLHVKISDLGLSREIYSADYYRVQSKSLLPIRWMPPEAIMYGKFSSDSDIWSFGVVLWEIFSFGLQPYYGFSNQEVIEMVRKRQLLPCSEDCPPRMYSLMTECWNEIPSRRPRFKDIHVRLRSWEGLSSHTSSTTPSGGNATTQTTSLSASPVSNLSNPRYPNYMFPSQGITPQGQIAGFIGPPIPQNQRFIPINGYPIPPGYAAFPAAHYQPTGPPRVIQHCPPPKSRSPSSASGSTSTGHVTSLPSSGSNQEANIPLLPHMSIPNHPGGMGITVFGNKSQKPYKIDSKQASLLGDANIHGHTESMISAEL

MFI [1]	MFI [2]	MFI [3]	MFI [4]	MFI [5]	MFI [6]	MFI [7]	MFI [8]	Substance
6.85	12.1	1140	3.86	9.86	13.3	–	–	Hen Egg Lysozyme (HEL)-specific antibody
–	–	–	–	–	–	30.8	316	Human IgG1 (antibody)
4.45	15.5	125	3.01	5.67	9.92	22.6	45.3	goat anti human IgG-Fc specific PE secondary antibody, alone
4.31	4.36	94.6	2.08	6.1	6.53	23.2	54	mIgG-PE (PE labeled mouse IgG Ab) (antibody)
